Source: paper PMC10540216, “Activity Guided Azide-methyllysine Photo-trapping for Substrate Profiling of Lysine Demethylases” (Journal of the American Chemical Society, 2023)

Tested on: KDM4A-I71AzF
Test: CASI: photo-crosslinking with HEK293T cell extracts, StrepTactin enrichment and LC-MS/MS proteomics;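 further: lysates from HEK293T cells pretreated with a KDM4 inhibitor to raise proteome methylation, affinity-purified after ±UV, gel-resolved, trypsin-digested, with exclusive unique peptides per protein averaged per condition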
Format: binding, human
Conditions: sheet "Final results but with 0.01"

Molecule	Fold change (+UV/-UV)
KRT83_HUMAN (protein, UniProt P78385 1-493, looked up) Keratin, type II cuticular Hb3: MTCGFNSIGCGFRPGNFSCVSACGPRPSRCCITAAPYRGISCYRGLTGGFGSHSVCGGFRAGSCGRSFGYRSGGVCGPSPPCITTVSVNESLLTPLNLEIDPNAQCVKQEEKEQIKSLNSRFAAFIDKVRFLEQQNKLLETKLQFYQNRECCQSNLEPLFAGYIETLRREAECVEADSGRLASELNHVQEVLEGYKKKYEEEVALRATAENEFVALKKDVDCAYLRKSDLEANVEALIQEIDFLRRLYEEEIRILQSHISDTSVVVKLDNSRDLNMDCIVAEIKAQYDDIATRSRAEAESWYRSKCEEMKATVIRHGETLRRTKEEINELNRMIQRLTAEVENAKCQNSKLEAAVAQSEQQGEAALSDARCKLAELEGALQKAKQDMACLIREYQEVMNSKLGLDIEIATYRRLLEGEEQRLCEGVEAVNVCVSSSRGGVVCGDLCVSGSRPVTGSVCSAPCNGNLVVSTGLCKPCGQLNTTCGGGSCGQGRH	10
PYC_HUMAN (protein, UniProt P11498 21-1178, looked up) Pyruvate carboxylase, …: TAPAASPNVRRLEYKPIKKVMVANRGEIAIRVFRACTELGIRTVAIYSEQDTGQMHRQKADEAYLIGRGLAPVQAYLHIPDIIKVAKENNVDAVHPGYGFLSERADFAQACQDAGVRFIGPSPEVVRKMGDKVEARAIAIAAGVPVVPGTDAPITSLHEAHEFSNTYGFPIIFKAAYGGGGRGMRVVHSYEELEENYTRAYSEALAAFGNGALFVEKFIEKPRHIEVQILGDQYGNILHLYERDCSIQRRHQKVVEIAPAAHLDPQLRTRLTSDSVKLAKQVGYENAGTVEFLVDRHGKHYFIEVNSRLQVEHTVTEEITDVDLVHAQIHVAEGRSLPDLGLRQENIRINGCAIQCRVTTEDPARSFQPDTGRIEVFRSGEGMGIRLDNASAFQGAVISPHYDSLLVKVIAHGKDHPTAATKMSRALAEFRVRGVKTNIAFLQNVLNNQQFLAGTVDTQFIDENPELFQLRPAQNRAQKLLHYLGHVMVNGPTTPIPVKASPSPTDPVVPAVPIGPPPAGFRDILLREGPEGFARAVRNHPGLLLMDTTFRDAHQSLLATRVRTHDLKKIAPYVAHNFSKLFSMENWGGATFDVAMRFLYECPWRRLQELRELIPNIPFQMLLRGANAVGYTNYPDNVVFKFCEVAKENGMDVFRVFDSLNYLPNMLLGMEAAGSAGGVVEAAISYTGDVADPSRTKYSLQYYMGLAEELVRAGTHILCIKDMAGLLKPTACTMLVSSLRDRFPDLPLHIHTHDTSGAGVAAMLACAQAGADVVDVAADSMSGMTSQPSMGALVACTRGTPLDTEVPMERVFDYSEYWEGARGLYAAFDCTATMKSGNSDVYENEIPGGQYTNLHFQAHSMGLGSKFKEVKKAYVEANQMLGDLIKVTPSSKIVGDLAQFMVQNGLSRAEAEAQAEELSFPRSVVEFLQGYIGVPHGGFPEPFRSKVLKDLPRVEGRPGASLPPLDLQALEKELVDRHGEEVTPEDVLSAAMYPDVFAHFKDFTATFGPLDSLNTRLFLQGPKIAEEFEVELERGKTLHIKALAVSDLNRAGQRQVFFELNGQLRSILVKDTQAMKEMHFHPKALKDVKGQIGAPMPGKVIDIKVVAGAKVAKGQPLCVLSAMKMETVVTSPMEGTVRKVHVTKDMTLEGDDLILEIE	0.3333
IPO5_HUMAN (protein, UniProt O00410 2-1097, looked up) Importin-5: AAAAAEQQQFYLLLGNLLSPDNVVRKQAEETYENIPGQSKITFLLQAIRNTTAAEEARQMAAVLLRRLLSSAFDEVYPALPSDVQTAIKSELLMIIQMETQSSMRKKVCDIAAELARNLIDEDGNNQWPEGLKFLFDSVSSQNVGLREAALHIFWNFPGIFGNQQQHYLDVIKRMLVQCMQDQEHPSIRTLSARATAAFILANEHNVALFKHFADLLPGFLQAVNDSCYQNDDSVLKSLVEIADTVPKYLRPHLEATLQLSLKLCGDTSLNNMQRQLALEVIVTLSETAAAMLRKHTNIVAQTIPQMLAMMVDLEEDEDWANADELEDDDFDSNAVAGESALDRMACGLGGKLVLPMIKEHIMQMLQNPDWKYRHAGLMALSAIGEGCHQQMEGILNEIVNFVLLFLQDPHPRVRYAACNAVGQMATDFAPGFQKKFHEKVIAALLQTMEDQGNQRVQAHAAAALINFTEDCPKSLLIPYLDNLVKHLHSIMVLKLQELIQKGTKLVLEQVVTSIASVADTAEEKFVPYYDLFMPSLKHIVENAVQKELRLLRGKTIECISLIGLAVGKEKFMQDASDVMQLLLKTQTDFNDMEDDDPQISYMISAWARMCKILGKEFQQYLPVVMGPLMKTASIKPEVALLDTQDMENMSDDDGWEFVNLGDQQSFGIKTAGLEEKSTACQMLVCYAKELKEGFVEYTEQVVKLMVPLLKFYFHDGVRVAAAESMPLLLECARVRGPEYLTQMWHFMCDALIKAIGTEPDSDVLSEIMHSFAKCIEVMGDGCLNNEHFEELGGILKAKLEEHFKNQELRQVKRQDEDYDEQVEESLQDEDDNDVYILTKVSDILHSIFSSYKEKVLPWFEQLLPLIVNLICPHRPWPDRQWGLCIFDDVIEHCSPASFKYAEYFLRPMLQYVCDNSPEVRQAAAYGLGVMAQYGGDNYRPFCTEALPLLVRVIQSADSKTKENVNATENCISAVGKIMKFKPDCVNVEEVLPHWLSWLPLHEDKEEAVQTFNYLCDLIESNHPIVLGPNNTNLPKIFSIIAEGEMHEAIKHEDPCAKRLANVVRQVQTSGGLWTECIAQLSPEQQAAIQELLNSA	1
PRP16_HUMAN (protein, UniProt Q92620 2-1227, looked up) Pre-mRNA-splicing factor …: GDTSEDASIHRLEGTDLDCQVGGLICKSKSAASEQHVFKAPAPRPSLLGLDLLASLKRREREEKDDGEDKKKSKVSSYKDWEESKDDQKDAEEEGGDQAGQNIRKDRHYRSARVETPSHPGGVSEEFWERSRQRERERREHGVYASSKEEKDWKKEKSRDRDYDRKRDRDERDRSRHSSRSERDGGSERSSRRNEPESPRHRPKDAATPSRSTWEEEDSGYGSSRRSQWESPSPTPSYRDSERSHRLSTRDRDRSVRGKYSDDTPLPTPSYKYNEWADDRRHLGSTPRLSRGRGRREEGEEGISFDTEEERQQWEDDQRQADRDWYMMDEGYDEFHNPLAYSSEDYVRRREQHLHKQKQKRISAQRRQINEDNERWETNRMLTSGVVHRLEVDEDFEEDNAAKVHLMVHNLVPPFLDGRIVFTKQPEPVIPVKDATSDLAIIARKGSQTVRKHREQKERKKAQHKHWELAGTKLGDIMGVKKEEEPDKAVTEDGKVDYRTEQKFADHMKRKSEASSEFAKKKSILEQRQYLPIFAVQQELLTIIRDNSIVIVVGETGSGKTTQLTQYLHEDGYTDYGMIGCTQPRRVAAMSVAKRVSEEMGGNLGEEVGYAIRFEDCTSENTLIKYMTDGILLRESLREADLDHYSAIIMDEAHERSLNTDVLFGLLREVVARRSDLKLIVTSATMDAEKFAAFFGNVPIFHIPGRTFPVDILFSKTPQEDYVEAAVKQSLQVHLSGAPGDILIFMPGQEDIEVTSDQIVEHLEELENAPALAVLPIYSQLPSDLQAKIFQKAPDGVRKCIVATNIAETSLTVDGIMFVIDSGYCKLKVFNPRIGMDALQIYPISQANANQRSGRAGRTGPGQCFRLYTQSAYKNELLTTTVPEIQRTNLANVVLLLKSLGVQDLLQFHFMDPPPEDNMLNSMYQLWILGALDNTGGLTSTGRLMVEFPLDPALSKMLIVSCDMGCSSEILLIVSMLSVPAIFYRPKGREEESDQIREKFAVPESDHLTYLNVYLQWKNNNYSTIWCNDHFIHAKAMRKVREVRAQLKDIMVQQRMSLASCGTDWDIVRKCICAAYFHQAAKLKGIGEYVNIRTGMPCHLHPTSSLFGMGYTPDYIVYHELVMTTKEYMQCVTAVDGEWLAELGPMFYSVKQAGKSRQENRRRAKEEASAMEEEMALAEEQLRARRQEQEKRSPLGSVRSTKIYTPGRKEQGEPMTPRRTPARFGL	0
SIN3A_HUMAN (protein, UniProt Q96ST3 1-1273, looked up) Paired amphipathic helix …: MKRRLDDQESPVYAAQQRRIPGSTEAFPHQHRVLAPAPPVYEAVSETMQSATGIQYSVTPSYQVSAMPQSSGSHGPAIAAVHSSHHHPTAVQPHGGQVVQSHAHPAPPVAPVQGQQQFQRLKVEDALSYLDQVKLQFGSQPQVYNDFLDIMKEFKSQSIDTPGVISRVSQLFKGHPDLIMGFNTFLPPGYKIEVQTNDMVNVTTPGQVHQIPTHGIQPQPQPPPQHPSQPSAQSAPAPAQPAPQPPPAKVSKPSQLQAHTPASQQTPPLPPYASPRSPPVQPHTPVTISLGTAPSLQNNQPVEFNHAINYVNKIKNRFQGQPDIYKAFLEILHTYQKEQRNAKEAGGNYTPALTEQEVYAQVARLFKNQEDLLSEFGQFLPDANSSVLLSKTTAEKVDSVRNDHGGTVKKPQLNNKPQRPSQNGCQIRRHPTGTTPPVKKKPKLLNLKDSSMADASKHGGGTESLFFDKVRKALRSAEAYENFLRCLVIFNQEVISRAELVQLVSPFLGKFPELFNWFKNFLGYKESVHLETYPKERATEGIAMEIDYASCKRLGSSYRALPKSYQQPKCTGRTPLCKEVLNDTWVSFPSWSEDSTFVSSKKTQYEEHIYRCEDERFELDVVLETNLATIRVLEAIQKKLSRLSAEEQAKFRLDNTLGGTSEVIHRKALQRIYADKAADIIDGLRKNPSIAVPIVLKRLKMKEEEWREAQRGFNKVWREQNEKYYLKSLDHQGINFKQNDTKVLRSKSLLNEIESIYDERQEQATEENAGVPVGPHLSLAYEDKQILEDAAALIIHHVKRQTGIQKEDKYKIKQIMHHFIPDLLFAQRGDLSDVEEEEEEEMDVDEATGAVKKHNGVGGSPPKSKLLFSNTAAQKLRGMDEVYNLFYVNNNWYIFMRLHQILCLRLLRICSQAERQIEEENREREWEREVLGIKRDKSDSPAIQLRLKEPMDVDVEDYYPAFLDMVRSLLDGNIDSSQYEDSLREMFTIHAYIAFTMDKLIQSIVRQLQHIVSDEICVQVTDLYLAENNNGATGGQLNTQNSRSLLESTYQRKAEQLMSDENCFKLMFIQSQGQVQLTIELLDTEEENSDDPVEAERWSDYVERYMNSDTTSPELREHLAQKPVFLPRNLRRIRKCQRGREQQEKEGKEGNSKKTMENVDSLDKLECRFKLNSYKMVYVIKSEDYMYRRTALLRAHQSHERVSKRLHQRFQAWVDKWTKEHVPREMAAETSKWLMGEGLEGLVPCTTTCDTETLHFVSINKYRVKYGTVFKAP	1.333
RRP44_HUMAN (protein, UniProt Q9Y2L1 1-958, looked up) Exosome complex exonuclease …: MLKSKTFLKKTRAGGVMKIVREHYLRDDIGCGAPGCAACGGAHEGPALEPQPQDPASSVCPQPHYLLPDTNVLLHQIDVLEDPAIRNVIVLQTVLQEVRNRSAPVYKRIRDVTNNQEKHFYTFTNEHHRETYVEQEQGENANDRNDRAIRVAAKWYNEHLKKMSADNQLQVIFITNDRRNKEKAIEEGIPAFTCEEYVKSLTANPELIDRLACLSEEGNEIESGKIIFSEHLPLSKLQQGIKSGTYLQGTFRASRENYLEATVWIHGDNEENKEIILQGLKHLNRAVHEDIVAVELLPKSQWVAPSSVVLHDEGQNEEDVEKEEETERMLKTAVSEKMLKPTGRVVGIIKRNWRPYCGMLSKSDIKESRRHLFTPADKRIPRIRIETRQASTLEGRRIIVAIDGWPRNSRYPNGHFVRNLGDVGEKETETEVLLLEHDVPHQPFSQAVLSFLPKMPWSITEKDMKNREDLRHLCICSVDPPGCTDIDDALHCRELENGNLEVGVHIADVSHFIRPGNALDQESARRGTTVYLCEKRIDMVPELLSSNLCSLKCDVDRLAFSCIWEMNHNAEILKTKFTKSVINSKASLTYAEAQLRIDSANMNDDITTSLRGLNKLAKILKKRRIEKGALTLSSPEVRFHMDSETHDPIDLQTKELRETNSMVEEFMLLANISVAKKIHEEFSEHALLRKHPAPPPSNYEILVKAARSRNLEIKTDTAKSLAESLDQAESPTFPYLNTLLRILATRCMMQAVYFCSGMDNDFHHYGLASPIYTHFTSPIRRYADVIVHRLLAVAIGADCTYPELTDKHKLADICKNLNFRHKMAQYAQRASVAFHTQLFFKSKGIVSEEAYILFVRKNAIVVLIPKYGLEGTVFFEEKDKPNPQLIYDDEIPSLKIEDTVFHVFDKVKVKIMLDSSNLQHQKIRMSLVEPQIPGISIPTDTSNMDLNGPKKKKMKLGK	0.6
